In the supplement of paper PMC7877785:
± gives the uncertainty stated by the source.

Experiment: self-splicing fitness, log relative to wild type (ln ratio); higher = more splicing; Tetrahymena group I intron in knt gene, E. coli kanamycin selection, DiMSum; sequences stand for … in CUCUCU…GGAGGGAAAAGUUAUCAGGCAUGCACCUGGUAGCUAGUCUUUAAACCAAUAGAUUGCAUCGGUUUAAAAGGCAAGACCGUCAAAUUGCGGGAAAGGGGUCAACAGCCGUUCAGUACCAAGUCUCAGGGGAAACUUUGAGAUGGCCUUGCAAAGGGUAUGGUAAUAAGCUGACGGACAUGGUCCUAACCACGCAGCCAAGUCCUAAGUCAACAGAUCUUCUGUUGAUAUGGAUGCAGUUCACAGACUAAAUGUCGGUCGGGGAAGAUGUAUUCUUCUCAUAAGAUAUAGUCGGACCUCUCCUUAAUGGGAGCUAGCGGAUGAAGUGAUGCAACACUGGAGCCGCUGGGAACUAAUUUGUAUGCGAAAGUAUAUUGAUUAGUUUUGGAGUACUCGUGGUCG
In short: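 Pooled colonies went to amplicon sequencing on an Illumina HiSeq 2500 after six replicate transformations. The plates were LB agar with 100 μg/mL carbenicillin, 50 μM IPTG and 0.2% rhamnose, with or without 25 μg/mL kanamycin, incubated overnight at 37°C or 30°C. The E. coli BL21(DE3) library had all eight P1ex-region intron nucleotides randomised, the intron placed in the knt kanamycin-resistance gene on pET-22b(+). DiMSum fitness is the error-weighted combination of replicate fold changes, kanamycin against none, normalised to wild type.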

For CGAUAGCAAUAUUACGCACA, which “self-splicing fitness (ln)” value (30 °C) is on record?
Its value is -0.708 ± 0.088.

What about the “self-splicing fitness (ln)” value (37 °C) of the same sequence?
The value was -0.0385 ± 0.12.

For CGAUAGCAAUAUUACGCCAG, which “self-splicing fitness (ln)” value (30 °C) is on record?
The value was -1.35 ± 0.1.

What about the “self-splicing fitness (ln)” value (37 °C) of the same sequence?
The value was -0.84 ± 0.15.

For CGAUAGCAAUAUUACGCCCU, which “self-splicing fitness (ln)” value (30 °C) is on record?
Its value is -0.983 ± 0.2.

And the “self-splicing fitness (ln)” value (37 °C)?
The value was 0.695 ± 0.25.

With CGAUAGCAAUAUUACGCUGG as the sequence, how does the “self-splicing fitness (ln)” value (30 °C) read?
The value was -0.585 ± 0.19.

And the “self-splicing fitness (ln)” value (37 °C)?
The value was -1.43 ± 0.23.

For CGAUAGCAAUAUUACGCUUA, which “self-splicing fitness (ln)” value (30 °C) is on record?
Its value is -2.23 ± 0.12.

What about the “self-splicing fitness (ln)” value (37 °C) of the same sequence?
Its value is -1.19 ± 0.078.

Which results are given for CGAUAGCAAUAUUACGGAAU?
self-splicing fitness (ln) (30 °C): -3.23 ± 0.16; self-splicing fitness (ln) (37 °C): -2.01 ± 0.2

Which “self-splicing fitness (ln)” value (30 °C) does the source give for CGAUAGCAAUAUUACGGACU here?
Its value is -1.28 ± 0.095.

And the “self-splicing fitness (ln)” value (37 °C)?
The value was -0.496 ± 0.11.

Which “self-splicing fitness (ln)” value (30 °C) does the source give for CGAUAGCAAUAUUACGGAUU here?
Its value is -2.89 ± 0.11.

And the “self-splicing fitness (ln)” value (37 °C)?
The value was -2.61 ± 0.2.

Which “self-splicing fitness (ln)” value (30 °C) does the source give for CGAUAGCAAUAUUACGGCGC here?
The value was -1.21 ± 0.15.

And the “self-splicing fitness (ln)” value (37 °C)?
The value was -0.875 ± 0.26.

Which “self-splicing fitness (ln)” value (30 °C) does the source give for CGAUAGCAAUAUUACGGCUA here?
The value was -3.24 ± 0.49.

What about the “self-splicing fitness (ln)” value (37 °C) of the same sequence?
Its value is -1.08 ± 0.17.

Which “self-splicing fitness (ln)” value (30 °C) does the source give for CGAUAGCAAUAUUACGGCUG here?
The value was -0.568 ± 0.1.

What about the “self-splicing fitness (ln)” value (37 °C) of the same sequence?
Its value is 0.209 ± 0.15.

For CGAUAGCAAUAUUACGGCUU, which “self-splicing fitness (ln)” value (30 °C) is on record?
Its value is -2.67 ± 0.17.

And the “self-splicing fitness (ln)” value (37 °C)?
Its value is -1.51 ± 0.19.

With CGAUAGCAAUAUUACGUCAC as the sequence, how does the “self-splicing fitness (ln)” value (30 °C) read?
Its value is -3.44 ± 0.26.

And the “self-splicing fitness (ln)” value (37 °C)?
Its value is -2.34 ± 0.25.

With CGAUAGCAAUAUUACGUCGU as the sequence, how does the “self-splicing fitness (ln)” value (30 °C) read?
The value was -4.24 ± 0.2.

And the “self-splicing fitness (ln)” value (37 °C)?
The value was -3.05 ± 0.21.

What does the source list for CGAUAGCAAUAUUACGUCUU?
self-splicing fitness (ln) (30 °C): -1.49 ± 0.13; self-splicing fitness (ln) (37 °C): -0.12 ± 0.13

For CGAUAGCAAUAUUACGUUCU, which “self-splicing fitness (ln)” value (30 °C) is on record?
The value was -1.15 ± 0.07.

And the “self-splicing fitness (ln)” value (37 °C)?
Its value is -0.384 ± 0.094.

With CGAUAGCAAUAUUACGUUUU as the sequence, how does the “self-splicing fitness (ln)” value (30 °C) read?
The value was -3.78 ± 0.19.

What about the “self-splicing fitness (ln)” value (37 °C) of the same sequence?
The value was -2.76 ± 0.16.

For CGCAAGCAAUAUUACGAAUC, which “self-splicing fitness (ln)” value (30 °C) is on record?
The value was -4.8 ± 0.38.

What about the “self-splicing fitness (ln)” value (37 °C) of the same sequence?
The value was -1.29 ± 0.18.

What does the source list for CGCAAGCAAUAUUACGAGCG?
self-splicing fitness (ln) (30 °C): -3 ± 0.38; self-splicing fitness (ln) (37 °C): -2.52 ± 0.44

For CGCAAGCAAUAUUACGAGGG, which “self-splicing fitness (ln)” value (30 °C) is on record?
The value was -3.85 ± 0.23.

What about the “self-splicing fitness (ln)” value (37 °C) of the same sequence?
Its value is -2.9 ± 0.32.

Which results are given for CGCAAGCAAUAUUACGAUUU?
self-splicing fitness (ln) (30 °C): -2.45 ± 0.16; self-splicing fitness (ln) (37 °C): -2.33 ± 0.18

Which results are given for CGCAAGCAAUAUUACGCCGU?
self-splicing fitness (ln) (30 °C): -2.67 ± 0.25; self-splicing fitness (ln) (37 °C): -0.883 ± 0.14

For CGCAAGCAAUAUUACGCCUA, which “self-splicing fitness (ln)” value (30 °C) is on record?
Its value is -0.46 ± 0.094.

And the “self-splicing fitness (ln)” value (37 °C)?
Its value is -0.653 ± 0.1.

What does the source list for CGCAAGCAAUAUUACGCUAG?
self-splicing fitness (ln) (30 °C): -2.46 ± 0.16; self-splicing fitness (ln) (37 °C): -2.89 ± 0.2

For CGCAAGCAAUAUUACGGAAA, which “self-splicing fitness (ln)” value (30 °C) is on record?
The value was -2.31 ± 0.33.

What about the “self-splicing fitness (ln)” value (37 °C) of the same sequence?
Its value is -2.5 ± 0.2.

Which “self-splicing fitness (ln)” value (30 °C) does the source give for CGCAAGCAAUAUUACGGAAG here?
The value was -1.03 ± 0.097.

And the “self-splicing fitness (ln)” value (37 °C)?
Its value is -1.44 ± 0.1.

For CGCAAGCAAUAUUACGGCAC, which “self-splicing fitness (ln)” value (30 °C) is on record?
The value was -2.32 ± 0.21.

And the “self-splicing fitness (ln)” value (37 °C)?
The value was -1.29 ± 0.3.

Which results are given for CGCAAGCAAUAUUACGGCAU?
self-splicing fitness (ln) (30 °C): -1.63 ± 0.071; self-splicing fitness (ln) (37 °C): -0.555 ± 0.079

For CGCAAGCAAUAUUACGGCGU, which “self-splicing fitness (ln)” value (30 °C) is on record?
Its value is -3.52 ± 0.15.

What about the “self-splicing fitness (ln)” value (37 °C) of the same sequence?
Its value is -2.2 ± 0.18.

For CGCAAGCAAUAUUACGGCUG, which “self-splicing fitness (ln)” value (30 °C) is on record?
The value was -1.33 ± 0.065.

And the “self-splicing fitness (ln)” value (37 °C)?
The value was 0.0892 ± 0.085.

What does the source list for CGCAAGCAAUAUUACGGGAG?
self-splicing fitness (ln) (30 °C): -2.73 ± 0.095; self-splicing fitness (ln) (37 °C): -2.19 ± 0.12

What does the source list for CGCAAGCAAUAUUACGGUCA?
self-splicing fitness (ln) (30 °C): -0.699 ± 0.067; self-splicing fitness (ln) (37 °C): 0.0685 ± 0.079

Which “self-splicing fitness (ln)” value (30 °C) does the source give for CGCAAGCAAUAUUACGUACA here?
Its value is -2.03 ± 0.11.

And the “self-splicing fitness (ln)” value (37 °C)?
Its value is -0.56 ± 0.085.

Which results are given for CGCAAGCAAUAUUACGUAGA?
self-splicing fitness (ln) (30 °C): -2.6 ± 0.11; self-splicing fitness (ln) (37 °C): -1.73 ± 0.13

What does the source list for CGCAAGCAAUAUUACGUGCG?
self-splicing fitness (ln) (30 °C): -2.81 ± 0.26; self-splicing fitness (ln) (37 °C): -2.23 ± 0.2

Which “self-splicing fitness (ln)” value (30 °C) does the source give for CGCAAGCAAUAUUACGUGGC here?
The value was -3.9 ± 0.2.

And the “self-splicing fitness (ln)” value (37 °C)?
The value was -1.93 ± 0.17.

With CGCAAGCAAUAUUACGUGGG as the sequence, how does the “self-splicing fitness (ln)” value (30 °C) read?
The value was -4.69 ± 0.25.

And the “self-splicing fitness (ln)” value (37 °C)?
Its value is -3.16 ± 0.17.

Which results are given for CGCCAGCAAUAUUACGAAAC?
self-splicing fitness (ln) (30 °C): -4.57 ± 0.36; self-splicing fitness (ln) (37 °C): -1.78 ± 0.2

Which results are given for CGCCAGCAAUAUUACGAAGG?
self-splicing fitness (ln) (30 °C): -1.36 ± 0.11; self-splicing fitness (ln) (37 °C): -1.9 ± 0.16

What does the source list for CGCCAGCAAUAUUACGAAGU?
self-splicing fitness (ln) (30 °C): -3.65 ± 0.16; self-splicing fitness (ln) (37 °C): -2.13 ± 0.11

What does the source list for CGCCAGCAAUAUUACGAGGA?
self-splicing fitness (ln) (30 °C): -3.07 ± 0.19; self-splicing fitness (ln) (37 °C): -2.41 ± 0.22

Which results are given for CGCCAGCAAUAUUACGAGUA?
self-splicing fitness (ln) (30 °C): -2.79 ± 0.18; self-splicing fitness (ln) (37 °C): -1.52 ± 0.18

With CGCCAGCAAUAUUACGAUAA as the sequence, how does the “self-splicing fitness (ln)” value (30 °C) read?
The value was -3.9 ± 0.46.

What about the “self-splicing fitness (ln)” value (37 °C) of the same sequence?
The value was -2.78 ± 0.35.

For CGCCAGCAAUAUUACGAUGG, which “self-splicing fitness (ln)” value (30 °C) is on record?
Its value is -3.09 ± 0.15.

What about the “self-splicing fitness (ln)” value (37 °C) of the same sequence?
Its value is -2.72 ± 0.23.

What does the source list for CGCCAGCAAUAUUACGAUUC?
self-splicing fitness (ln) (30 °C): -4.81 ± 0.46; self-splicing fitness (ln) (37 °C): -3.22 ± 0.35

With CGCCAGCAAUAUUACGAUUG as the sequence, how does the “self-splicing fitness (ln)” value (30 °C) read?
Its value is -0.454 ± 0.06.

And the “self-splicing fitness (ln)” value (37 °C)?
The value was 0.047 ± 0.083.

For CGCCAGCAAUAUUACGCACU, which “self-splicing fitness (ln)” value (30 °C) is on record?
The value was -2.23 ± 0.14.

And the “self-splicing fitness (ln)” value (37 °C)?
The value was -1.47 ± 0.14.
